The numbers were not newly measured in publication PMC8395526, which cites them from elsewhere.

The series has as its target erbB2 (Homo sapiens) (UniProt P04626). Kind of series: SPR.

As a reminder, the Kd is the constant that tells how readily two partners part at equilibrium. “erbB2-SbdIV subdomain IV (from UniProt P04626)”: the Kd is 1890 nM.
